Test results reported in patent publication US20190224333A1 (published 2019).

Biological target: T1, fibrin (human, UniProt P02671 36-629; P02675 45-491; P02679 27-437, limits assumed)
T1 construct: Thin polymerised fibrin layer made by layer-by-layer deposition of fibrinogen-thrombin-fibrinogen on ELISA plates, SPR chips and interferometry sensors; Human is stated for the purified fibrinogen used in biopanning; also called fibrin layer; fibrin clot
T1 sequence (looked up) 1: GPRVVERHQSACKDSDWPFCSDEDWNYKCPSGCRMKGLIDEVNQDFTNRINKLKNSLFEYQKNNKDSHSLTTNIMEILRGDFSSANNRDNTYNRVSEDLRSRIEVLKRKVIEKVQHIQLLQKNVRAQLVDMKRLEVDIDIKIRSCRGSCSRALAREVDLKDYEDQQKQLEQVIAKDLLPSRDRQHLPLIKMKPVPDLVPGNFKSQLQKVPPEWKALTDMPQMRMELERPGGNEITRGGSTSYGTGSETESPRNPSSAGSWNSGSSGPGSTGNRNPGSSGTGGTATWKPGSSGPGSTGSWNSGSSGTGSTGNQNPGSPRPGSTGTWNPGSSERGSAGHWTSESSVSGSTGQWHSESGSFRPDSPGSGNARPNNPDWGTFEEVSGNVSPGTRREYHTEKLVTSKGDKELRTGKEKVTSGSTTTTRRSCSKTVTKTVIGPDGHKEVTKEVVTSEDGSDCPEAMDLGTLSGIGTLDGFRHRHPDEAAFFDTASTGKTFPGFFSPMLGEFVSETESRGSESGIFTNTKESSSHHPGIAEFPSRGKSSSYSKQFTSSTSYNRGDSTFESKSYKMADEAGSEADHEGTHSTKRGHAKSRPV
T1 sequence (looked up) 2: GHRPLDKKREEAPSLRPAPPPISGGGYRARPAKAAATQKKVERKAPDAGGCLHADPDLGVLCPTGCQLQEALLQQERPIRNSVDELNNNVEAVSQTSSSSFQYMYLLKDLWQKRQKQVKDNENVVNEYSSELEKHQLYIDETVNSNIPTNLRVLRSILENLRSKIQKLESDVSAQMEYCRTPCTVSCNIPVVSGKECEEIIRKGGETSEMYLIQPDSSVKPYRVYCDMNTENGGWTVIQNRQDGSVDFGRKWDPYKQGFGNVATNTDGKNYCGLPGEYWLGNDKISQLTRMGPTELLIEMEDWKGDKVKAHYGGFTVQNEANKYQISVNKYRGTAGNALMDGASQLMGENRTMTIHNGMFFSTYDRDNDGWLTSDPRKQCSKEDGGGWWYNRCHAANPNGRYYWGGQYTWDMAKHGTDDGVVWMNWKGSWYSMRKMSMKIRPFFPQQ
T1 sequence (looked up) 3: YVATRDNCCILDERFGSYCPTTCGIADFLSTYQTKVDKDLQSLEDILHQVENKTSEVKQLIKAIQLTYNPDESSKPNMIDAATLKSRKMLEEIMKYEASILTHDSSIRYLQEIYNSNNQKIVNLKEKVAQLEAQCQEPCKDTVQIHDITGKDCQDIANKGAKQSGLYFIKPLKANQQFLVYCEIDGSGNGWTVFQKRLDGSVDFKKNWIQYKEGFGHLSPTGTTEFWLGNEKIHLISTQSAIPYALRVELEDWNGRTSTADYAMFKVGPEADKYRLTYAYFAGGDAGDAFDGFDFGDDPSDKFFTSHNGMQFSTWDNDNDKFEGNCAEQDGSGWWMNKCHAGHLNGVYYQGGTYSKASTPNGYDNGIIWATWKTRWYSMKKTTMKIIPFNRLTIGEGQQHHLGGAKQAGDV
Assay: SPR, sdFv flowed over immobilised fibrin layer, 1:1 Langmuir fit
Description: Based on previous SPR protocols developed in the lab⁴, a thin fibrin layer was immobilized on the surface of a gold SPR chip via layer-by-layer deposition of fibrinogen-thrombin-fibrinogen³. SdFvs were flowed across the fibrin surface and the binding interactions were evaluated and recorded. Additionally, antibody fragment binding interactions with a surface of immobilized fibrinogen was used to investigate the specificity to fibrin. All SPR data was examined and analyzed with Scrubber 2 and Clamp XP (Center for Biomolecular Interactions Analysis, University of Utah). Data simulation curves were generated based on a Langmuir 1:1 binding model assuming only a single ligand-analyte interaction.
The four most promising clones, based on their selectivity for fibrin over fibrinogen (clones A2, A6, B3 and H6) and a random clone (S11) were then evaluated through SPR analysis (FIGS. 2B-2K). […] Clones H6 and S11 (negative control) were subsequently utilized for creation of PLPs. Interferometry analysis verified that sdFv-microgels maintained their fibrin-binding capabilities (FIG. 3).

B1: H6 (VHH)
VHH: QVQLLESGGGLVQPGGSLRLSCAASGDRFTHNDMGWVRQAPGKGLEWVSTIPTTDGSTYYADSVKGRFTISRDNSKSTLYLQMNSLRAEDTAVYYCATGYMWKAPAYVKYWGQGTLVTVSS
notes: Human-derived single domain variable fragment (sdFv, VH only) from a phagemid library; Made as soluble sdFv in E. coli HB2151 and purified on protein A; also called clone H6; fibrin-specific sdFv
Binder B1 has a Kd of 199 nM.
